Measured values taken from PMC3470471 (Circulation research, 2012).

Biological target: the molecule itself
Experiment: cross-linking

B1: myosin light chain 1 (rat cardiac myofibrils) (natural protein)
chain: not shown
stoichiometry N: 2
